Test results as given in the supplement of paper PMC11246515.
± gives the standard deviation of the averaged measurements.

Experiment: total protein half-life in vivo (active degradation + dilution); higher = more stable protein
[1] = E. coli NCM3722 delta-clpP delta-lon delta-hslV, growth: N-lim chemostat, doubling time 6 h
[2] = E. coli NCM3722 delta-clpP, growth: N-lim chemostat, doubling time 6 h
[3] = E. coli NCM3722 delta-hslV, growth: N-lim chemostat, doubling time 6 h
[4] = E. coli NCM3722 delta-lon, growth: N-lim chemostat, doubling time 6 h
[5] = E. coli NCM3722 delta-smpB, growth: N-lim chemostat, doubling time 6 h
[6] = wild type E. coli NCM3722, growth: C-lim chemostat, doubling time 3 h
[7] = wild type E. coli NCM3722, growth: C-lim chemostat, doubling time 6 h
[8] = wild type E. coli NCM3722, growth: C-lim chemostat, doubling time 12 h
[9] = wild type E. coli NCM3722, growth: N-lim chemostat, doubling time 6 h
[10] = wild type E. coli NCM3722, growth: N-lim chemostat, doubling time 12 h
[11] = wild type E. coli NCM3722, growth: P-lim chemostat, doubling time 6 h
[12] = wild type E. coli NCM3722, growth: P-lim chemostat, doubling time 12 h

Row | Sequence | total protein half-life in vivo [1] [h] | total protein half-life in vivo [2] [h] | total protein half-life in vivo [3] [h] | total protein half-life in vivo [4] [h] | total protein half-life in vivo [5] [h] | total protein half-life in vivo [6] [h] | total protein half-life in vivo [7] [h] | total protein half-life in vivo [8] [h] | total protein half-life in vivo [9] [h] | total protein half-life in vivo [10] [h] | total protein half-life in vivo [11] [h] | total protein half-life in vivo [12] [h]
1 | MTLDLPRRFPWPTLLSVCIHGAVVAGLLYTSVHQVIELPAPAQPISVTMVTPADLEPPQAVQPPPEPVVEPEPEPEPIPEPPKEAPVVIEKPKPKPKPKPKPVKKVQEQPKRDVKPVESRPASPFENTAPARLTSSTATAATSKPVTSVASGPRALSRNQPQYPARAQALRIEGQVKVKFDVTPDGRVDNVQILSAKPANMFEREVKNAMRRWRYEPGKPGSGIVVNILFKINGTTEIQ | 3.05 ± 0.064 | 3.18 ± 0.081 | 2.27 ± 0.21 | 1.79 ± 0.029 | 2.92 ± 1.7 | 1.93 ± 0.35 | 3.6 ± 0.45 | 5.81 ± 0.11 | 2.33 ± 0.17 | 3.29 ± 0.16 | 3.17 ± 0.13 | 6.09 ± 0.82
2 | MNDSEFHRLADQLWLTIEERLDDWDGDSDIDCEINGGVLTITFENGSKIIINRQEPLHQVWLATKQGGYHFDLKGDEWICDRSGETFWDLLEQAATQQAGETVSFR | 5.94 ± 0.86 | 6.07 | 5.73 ± 0.14 | 5.77 ± 0.51 | 4.57 ± 1.3 | 2.95 ± 0.78 | 5.61 ± 1.6 | 9.5 | 5.34 ± 0.45 | 9.68 ± 0.16 | 5.67 ± 0.12 | 11 ± 0.23
3 | MRLDKFIAQQLGVSRAIAGREIRGNRVTVDGEIVRNAAFKLLPEHDVAYDGNPLAQQHGPRYFMLNKPQGYVCSTDDPDHPTVLYFLDEPVAWKLHAAGRLDIDTTGLVLMTDDGQWSHRITSPRHHCEKTYLVTLESPVADDTAEQFAKGVQLHNEKDLTKPAVLEVITPTQVRLTISEGRYHQVKRMFAAVGNHVVELHRERIGGITLDADLAPGEYRPLTEEEIASVV [P0AA43] | 5.25 ± 0.067 | 4.76 ± 0.54 | 3.68 ± 0.064 | 4.65 ± 0.39 | 3.78 ± 0.066 | 3 ± 0.1 | 4.74 ± 0.18 | 8.66 ± 0.55 | 3.57 ± 0.14 | 6.08 ± 0.51 | 4 ± 0.33 | 7.21 ± 0.22
4 | MIAELFTNNALNLVIIFGSCAALILMSFWFRRGNRKRKGFLFHAVQFLIYTIIISAVGSIINYVIENYKLKFITPGVIDFICTSLIAVILTIKLFLLINQFEKQQIKKGRDITSARIMSRIIKITIIVVLVLLYGEHFGMSLSGLLTFGGIGGLAVGMAGKDILSNFFSGIMLYFDRPFSIGDWIRSPDRNIEGTVAEIGWRITKITTFDNRPLYVPNSLFSSISVENPGRMTNRRITTTIGLRYEDAAKVGVIVEAVREMLKNHPAIDQRQTLLVYFNQFADSSLNIMVYCFTKTTVWAEWLAAQQDVYLKIIDIVQSHGADFAFPSQTLYMDNITPPEQGR [P0AEB5] | 6.12 ± 0.49 | 6.41 ± 0.17 | 6.48 ± 0.5 | 6.71 ± 0.27 | 6.07 ± 0.36 | 3.02 ± 0.1 | 6.34 ± 0.4 | 11.9 ± 0.12 | 6.02 ± 0.14 | 12.7 ± 1.4 | 5.86 ± 0.78 | 
5 | MADTRPERRFTRIDRLPPYVFNITAELKMAARRRGEDIIDFSMGNPDGATPPHIVEKLCTVAQRPDTHGYSTSRGIPRLRRAISRWYQDRYDVEIDPESEAIVTIGSKEGLAHLMLATLDHGDTVLVPNPSYPIHIYGAVIAGAQVRSVPLVEGVDFFNELERAIRESYPKPKMMILGFPSNPTAQCVELEFFEKVVALAKRYDVLVVHDLAYADIVYDGWKAPSIMQVPGARDVAVEFFTLSKSYNMAGWRIGFMVGNKTLVSALARIKSYHDYGTFTPLQVAAIAALEGDQQCVRDIAEQYKRRRDVLVKGLHEAGWMVEMPKASMYVWAKIPEPYAAMGSLEFAKKLLNEAKVCVSPGIGFGDYGDTHVRFALIENRDRIRQAIRGIKAMFRADGLLPASSKHIHENAE | 4.48 ± 0.37 | 4.17 ± 0.25 | 2.21 ± 0.2 | 2.27 ± 0.23 | 2.22 ± 0.062 | 2.43 ± 0.15 | 3.92 ± 0.59 | 7.44 ± 1.7 | 2.28 ± 0.1 | 2.92 ± 0.049 | 4.75 ± 0.82 | 7.31 ± 0.3
6 | MTETIKVSESLELHAVAENHVKPLYQLICKNKTWLQQSLNWPQFVQSEEDTRKTVQGNVMLHQRGYAKMFMIFKEDELIGVISFNRIEPLNKTAEIGYWLDESHQGQGIISQALQALIHHYAQSGELRRFVIKCRVDNPQSNQVALRNGFILEGCLKQAEFLNDAYDDVNLYARIIDSQ | 4.21 ± 0.68 | 4.2 ± 0.35 | 3.75 ± 0.27 | 3.31 ± 0.19 | 4.22 ± 0.22 | 3.18 ± 0.37 | 5.79 ± 0.19 | 8.82 ± 2.3 | 4.47 | 6.48 ± 0.098 | 5.61 ± 0.16 | 13.7 ± 0.43
7 | MAYSKIRQPKLSDVIEQQLEFLILEGTLRPGEKLPPERELAKQFDVSRPSLREAIQRLEAKGLLLRRQGGGTFVQSSLWQSFSDPLVELLSDHPESQYDLLETRHALEGIAAYYAALRSTDEDKERIRELHHAIELAQQSGDLDAESNAVLQYQIAVTEAAHNVVLLHLLRCMEPMLAQNVRQNFELLYSRREMLPLVSSHRTRIFEAIMAGKPEEAREASHRHLAFIEEILLDRSREESRRERSLRRLEQRKN [P0ACL9] | 5.54 ± 0.1 | 5.3 ± 0.09 | 4.94 ± 0.19 | 4.33 | 4.54 ± 0.35 | 2.94 ± 0.1 | 6.361 ± 0.042 | 9.49 ± 0.8 | 4.53 ± 0.67 | 9.28 | 5.59 ± 0.71 | 11.2 ± 1.1
